The results in this text go back to publication PMC3234234, “A Host Small GTP-binding Protein ARL8 Plays Crucial Roles in Tobamovirus RNA Replication” (PLoS Pathogens, 2011).

Assay [1] addresses AtARL8a-Cub-PLV (split-ubiquitin bait) (Arabidopsis thaliana) (UniProt Q8VY57). The experiment in a line: two-hybrid; split-ubiquitin assay in yeast reporter strain L40; Cub-PLV fusion as bait, NubG fusion as prey; beta-galactosidase activity (Miller units).
For assay [2], the target named is T1, AtTOM1-Cub-PLV (split-ubiquitin bait) (Arabidopsis thaliana, UniProt Q9FEG2 1-291).
T1 construct: Arabidopsis thaliana TOM1, seven-pass transmembrane protein; source: yeast two-hybrid fusion (split-ubiquitin, reporter strain L40); not shown: Cub-PLV, C-terminal, kept
T1 sequence (looked up): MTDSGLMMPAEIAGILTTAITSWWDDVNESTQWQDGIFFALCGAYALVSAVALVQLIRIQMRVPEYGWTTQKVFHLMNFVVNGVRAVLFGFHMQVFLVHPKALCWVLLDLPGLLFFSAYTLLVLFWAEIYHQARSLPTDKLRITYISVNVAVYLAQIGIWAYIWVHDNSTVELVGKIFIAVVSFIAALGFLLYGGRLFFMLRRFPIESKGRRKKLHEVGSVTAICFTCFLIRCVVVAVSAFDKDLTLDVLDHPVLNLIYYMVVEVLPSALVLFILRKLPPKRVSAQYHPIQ
The description is as above. The settings on record: partners not purified.

“NubG-HEL: helicase domain polypeptide of ToMV replication proteins (residues 648-1116 of the 130K protein) (domain or fragment)” gave a fold weaker signal (beta-galactosidase) than the TOM1-helicase domain pair in assay [1] of 13 times weaker.

B1: AtARL8a-NubG (split-ubiquitin prey) (natural protein, Arabidopsis thaliana, UniProt Q8VY57 1-184, looked up)
chain: MGLLEAFLNWLRSLFFKQEMELSLIGLQNAGKTSLVNVVATGGYSEDMIPTVGFNMRKVTKGNVTIKLWDLGGQPRFRSMWERYCRAVSAIVYVVDAADPDNLSVSKSELHDLLSKTSLNGIPLLVLGNKIDKPGALSKEALTDEMGLTSLTDREVCCFMISCKNSTNIDQVIDWLVKHSKSKN
notes: Arabidopsis thaliana ARL8a; 'a DNA fragment corresponding to the AtARL8a-coding region' put in place of TOM1 in pTN-TOM1-NubG; also called ARL8-NubG; source: yeast two-hybrid fusion (split-ubiquitin, reporter strain L40); not shown: NubG, C-terminal, kept
Take B1: in assay [2], the “fold weaker signal (beta-galactosidase) than the TOM1-helicase domain pair” value stood at 6 times weaker.
